The source of these data is patent US20200353078A1.

Substitutions are numbered along the chain they refer to.

Sequences and labels used below:
T1: Human IL-33 Flag®His (human)
T1 sequence: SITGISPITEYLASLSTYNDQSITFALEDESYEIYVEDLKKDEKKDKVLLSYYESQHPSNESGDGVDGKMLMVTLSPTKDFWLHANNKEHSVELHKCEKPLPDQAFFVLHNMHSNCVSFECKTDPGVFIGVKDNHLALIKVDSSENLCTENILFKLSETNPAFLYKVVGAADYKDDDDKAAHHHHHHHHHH

B1: IL33-02 (ligand)
chain: MHHHHHHHHHHAAGLNDIFEAQKIEWHEAAIEGRSITGISPITEYLASLSTYNDQSITFALEDESYEIYVEDLKKDEKKDKVLLSYYESQHPSNESGDGVDGKMLMVTLSPTKDFWLHANNKEHSVELHKSEKPLPDQAFFVLHNMHSNCVSFECKTDPGVFIGVKDNHLALIKVDSSENLCTENILFKLSET
B2: IL33-06 (ligand)
chain: B1 chain with C150S
B3: IL33-16 (ligand)
chain: B1 chain with C150S, C155S, C182S
B4: IL33-15 (ligand)
chain: B1 chain with S131C, C150S, C155S, C182S
B5: IL33-12 (ligand)
chain: B1 chain with C150S, C155S
B6: IL33-09 (ligand)
chain: B1 chain with S131C, C150S, C182S
B7: IL33-03 (ligand)
chain: B1 chain with S131C, C150S
B8: IL33-14 (ligand)
chain: B1 chain with C155S, C182S
B9: IL33-05 (ligand)
chain: B1 chain with S131C, C182S
B10: IL33-07 (ligand)
chain: B1 chain with S131C, C155S, C182S
B11: IL33-10 (ligand)
chain: B1 chain with S131C, C150S, C155S
B12: IL33-08 (ligand)
chain: B1 chain with C155S
B13: IL33-04 (ligand)
chain: B1 chain with S131C, C155S
B14: IL33-13 (ligand)
chain: B1 chain with C150S, C182S
B15: IL330020 scFv (scFv, part only; not given: linker, domain order and tags, V domains shown, not shown: another chain or arm of the molecule; small tags and cut ends)
VH: QVQLVQSGAEVKKPGASVKVSCKASGYTFTSYGISWVRQAPGQGLEWMGWISDYQGYTKYAEKFQGRVTMTTDTSTNTAYMELRSLRSDDTAVYYCARLYSSGWIRQYHFDYWGRGTLVTVSS
VL: SYELTQPPSVSVSPGQTASITCSGDNLKDKYVSWYQQKPGQAPVLVLYQDRKRPSGIPERFSGSNSGNTATLTISGTQAMDEADYYCQAWDSGTAFGGGTKVTVL
B16: IL330259 scFv (scFv, part only; not given: linker, domain order and tags, V domains shown, not shown: another chain or arm of the molecule; small tags and cut ends)
VH: EVQLLESGGGLVQPGGSLRLSCAASGFTFSSYAMSWVRQAPGKGLEWVSASTPWQGSTYYADSVKGRFTISRDNSKNTLYLQMNSLRAEDTAVYYCVRVVAGYFDSWGRGTLVTVSS
VL: SYVLTQPPSVSVSPGQTARITCSGDALPKQYAHWYQQKPGQAPALVIYKDTERPSGIPERFSGSSSGTTVTLTISGVQAEDEADYYCQSADSSGASRVFGGGTKVTVL

The target of one experiment is ST2 on human umbilical vein endothelial cells (human) (UniProt Q01638). Description: cell-based or functional assay.
Chain of ST2 on human umbilical vein endothelial cells (human) (Q01638 19-556): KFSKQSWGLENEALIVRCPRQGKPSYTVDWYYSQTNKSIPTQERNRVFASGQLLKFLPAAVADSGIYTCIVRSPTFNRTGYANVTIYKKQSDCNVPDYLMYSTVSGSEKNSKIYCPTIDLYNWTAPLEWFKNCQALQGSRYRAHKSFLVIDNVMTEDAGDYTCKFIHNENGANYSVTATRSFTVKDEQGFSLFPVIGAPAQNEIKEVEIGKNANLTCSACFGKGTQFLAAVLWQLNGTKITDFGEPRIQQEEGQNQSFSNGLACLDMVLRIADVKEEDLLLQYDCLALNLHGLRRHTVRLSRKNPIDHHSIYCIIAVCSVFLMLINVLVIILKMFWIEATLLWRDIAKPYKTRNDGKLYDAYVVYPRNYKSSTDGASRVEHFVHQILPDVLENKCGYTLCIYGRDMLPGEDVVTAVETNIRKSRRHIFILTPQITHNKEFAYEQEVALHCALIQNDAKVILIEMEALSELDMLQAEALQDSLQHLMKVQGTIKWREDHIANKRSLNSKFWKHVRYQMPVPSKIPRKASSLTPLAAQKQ
As for B1, the IC50 (nM) Untreated, HUVEC NFkB translocation assay stood at 0.19 nM.
Regarding B2, the IC50 (nM) Untreated, HUVEC NFkB translocation assay came to 0.28 nM.
As to B3, the IC50 (nM) Untreated, HUVEC NFkB translocation assay was 0.17 nM.
Still for that read-out and setting: as for B4, the figure is 0.12 nM.
Still for that read-out and setting: for B5 the value was 0.39 nM.
On the same count and under the same terms, as for B6, the figure is 0.2 nM; as for B7, 0.16 nM; as for B8, 0.14 nM.
In turn, B9 came in with an IC50 (nM) Untreated, HUVEC NFkB translocation assay of 0.1 nM.
On the same count and under the same terms, for B10 the value was 0.22 nM; for B11, 0.61 nM.
In the case of B12, the IC50 (nM) Untreated, HUVEC NFkB translocation assay is 0.21 nM.
In turn, B13 had an IC50 (nM) Untreated, HUVEC NFkB translocation assay of 0.17 nM.
As for B14, the IC50 (nM) Untreated, HUVEC NFkB translocation assay worked out at 0.08 nM.

The next experiment concerns the target T1, Human IL-33 Flag®His (human). Description: HTRF competition: purified scFv titrated against human ST2-Fc for FLAG-His human IL-33. On the technique in general: Time-resolved FRET reads energy transfer from a long-lived donor to a nearby acceptor.
In turn, B15 returned an IC50 (read off the curve) of 100 nM.

The next experiment concerns the target Human IL-33 (Axxora/Adipogen AG-40B-0038) (human) (UniProt O95760). As to the kind of experiment: HTRF epitope competition: purified scFv against IL330101 IgG for biotinylated human IL-33.
As for B16, the IC50 (read off the curve) came out at 7 nM.
